According to patent publication US20230348560A1:

Target: HLA-G1 isoform stably expressed on THP1 cells (human) (UniProt P17693)
Assay: cell-based or functional assay

luciferase activity of THP1-HLA-G1-GFPffluc targets after 24 h coculture (E:T 5:1 and 1:1): > 100000 light units
Substance: full length ILT2 (pNT-110 SFG-ILT2-T2A-ΔCD19) (from UniProt Q8NHL6 24-650) (receptor)
